Laboratory results as given in patent US20170304437A1 (ALLIGATOR BIOSCIENCE, published 2017).

Tests used:
[1] = target: T1, CD28-Fc (provided by Simon Davis, Oxford University) (human, UniProt P10747 19-152, limits assumed); test: binding ELISA, coated CD28-Fc
T1 construct: Gift reagent; not shown: Fc part
Procedure: (§1) The plates were washed (Wash buffer: PBS+0.05% Tween 20 (PBST) Medicago #09-9410-100) and then blocked in PBST+3% BSA (Merck, #1.12018.0100). The plates were washed again and sample or controls (serially diluted 1/3 from […]) were added to the wells. The samples were incubated for 1 h at room temperature and then washed. Detection antibody, goat-anti-human IgG Fγy-HRP (Jackson, #109-035-098) was added and the plates were subsequently developed using SuperSignal Pico Chemiluminescent substrate (Thermo #37069) and detected with an Envision reader (Perkin Elmer).

[2] = target: T2, human CTLA4-Fc (Fitzgerald #30R-CD152) (human, UniProt P16410 38-152); test: binding ELISA, CTLA4-Fc coated, sample titrated, anti-human IgG Fc-HRP, chemiluminescence, data normalised to % [upper panel]
T2 construct: Bought reagent; also called biotinylated-CTLA4; human CTLA-4 (Fitzgerald); not shown: Fc part of the bought fusion
T2 sequence (P16410 38-152 limits assumed): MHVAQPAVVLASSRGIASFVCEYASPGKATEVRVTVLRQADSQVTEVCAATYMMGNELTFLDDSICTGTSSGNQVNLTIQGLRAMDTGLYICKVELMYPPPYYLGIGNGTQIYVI
Procedure: as §1

[3] = target: T2, human CTLA4-Fc (Fitzgerald #30R-CD152); test: binding ELISA, coated CTLA4-Fc; high end tied to 1040 by Table 7
Procedure: as §1

[4] = target: T2, human CTLA4-Fc (Fitzgerald #30R-CD152); test: inhibition ELISA; best molecule is 1040 by Table 8
Procedure: (§2) The plates were washed (Wash buffer: PBS+0.05% Tween 20 (PBST) Medicago #09-9410-100) and then blocked in PBST+3% BSA (Merck, #1.12018.0100). The sample (CD86 mutant or wild type protein; serially diluted 1/4 from 30000 to 0.3 ng/ml) was incubated with biotinylated-CTLA4 (Fitzgerald #30R-CD152) in room temperature 1 h, the mixture was then added to the blocked wells in the ELISA plate. Detection was performed with Streptavidin-HRP (Pierce #21126) and the plates were subsequently developed using SuperSignal Pico Chemiluminescent substrate (Thermo #37069) and detected with Envision reader (Perkin Elmer).

[5] = target: T2, human CTLA4-Fc (Fitzgerald #30R-CD152); test: inhibition ELISA: sample titrated, pre-incubated with biotinylated CTLA4-Fc, mixture added to coated wildtype CD86-Fc (competitor), streptavidin-HRP [lower panel]
Procedure: as §2

[6] = target: T2, human CTLA4-Fc (Fitzgerald #30R-CD152); test: binding ELISA, coated CTLA4-Fc; low end tied to 1042 by Table 7
Procedure: as §1

[7] = target: T2, human CTLA4-Fc (Fitzgerald #30R-CD152); test: Biacore SPR, CD28/CTLA-4 Kd ratio against that of wild type
Procedure: The CD86 mutant molecules and controls (serially diluted 1/2 100-1.5 nM) were analyzed for binding in HBs-P (GE, BR-1003-69) at a flow rate […]. The association was followed for 3 minutes and the dissociation for 10 minutes. Regeneration was performed twice using 5 mM NaOH for 30 seconds. The kinetic parameters and the affinity constants were calculated using BlAevaluation 4.1 software.

[8] = target: T2, human CTLA4-Fc (Fitzgerald #30R-CD152); test: binding ELISA, CD28/CTLA-4 EC50 ratio against that of wild type
Procedure: The plates were washed (Wash buffer: PBS+0.05% Tween 20 (PBST) Medicago #09-9410-100) and then blocked in PBST+3% BSA (Merck, #1.12018.0100).
The plates were washed again and sample or controls (serially diluted 1/5 from 200-0.001 μg/ml) were added to the wells. The samples were incubated for 1 h at room temperature and then washed. Detection antibody, goat-anti-human IgG Fcγ-HRP (Jackson, #109-035-098) was added and the plates were subsequently developed using SuperSignal Pico Chemiluminescent substrate (Thermo #37069) and detected with an Envision reader

B1: CD86 mutant clone 1040, gamma2/gamma4 fusion (Fc fusion)
chain: APLKIQAYFNETADLPCQFANSQNLSLSELVVFWQDQENLVLNEVYLGKERFDSVDSKYMGRTSFDSDSWTLRLHNLQIKDKGRYQCIIHHKKPTGMINIHQMNSELSVLA
notes: Expressed as gamma2/gamma4 fusion, protein A purified; not shown: gamma2/gamma4 Fc
Question: Does B1 bind [1]?
Answer: Result: no binding

Question: And the “EC50 (read off the curve)” value [2]?
Answer: The value was roughly 0.009 µg/mL.

Question: And the “fold improvement of EC50 over wild type” value [3]?
Answer: Its value is 2 to 67 fold.

Question: And the “fold improvement of IC50 over wild type” value [4]?
Answer: The value was greater than 100 fold.

Question: And the “IC50 (read off the curve)” value [5]?
Answer: Its value is roughly 0.05 µg/mL.

B2: CD86 mutant clone 1042, gamma2/gamma4 fusion (Fc fusion)
chain: APLKIQAYFNETADLPCQFANSQNLSLSELVVFWQDQENLVLNEVYLGKEIFDSVSSKYMGRTSFDSDSWTLRLHNLQIKDKGIYQCIIHHKKPSGMVKIHQMDSELSVLA
notes: as for B1
Question: Does B2 bind [1]?
Answer: Result: no binding

Question: What about the “EC50 (read off the curve)” value [2] of the same binder?
Answer: Its value is roughly 0.3 µg/mL.

Question: What about the “fold improvement of EC50 over wild type” value [6] of the same binder?
Answer: Its value is 2 to 67 fold.

B3: CD86 mutant clone 904, gamma2/gamma4 Fc fusion (Fc fusion)
chain: LKIQAYFNETADLPCQFANSQNQSLSELIVFWQDQENLVLNEVYLGKERFDAVDSKYMGRTSFDSDSWTLRLHNLQIKDKGIYQCIIHHKKPSGMVKIHQMDSELSVLA
notes: Fusion to gamma2/gamma4 Fc, HEK293; not shown: gamma2/gamma4 Fc
Question: For B3, which “fold of Kd binding ratio over wild type protein CD86” value [7] is on record?
Answer: The value was greater than 4 fold.

B4: CD86 mutant clone 907, gamma2/gamma4 Fc fusion (Fc fusion)
chain: LKIQAYFNETADLPCQFANSQNQSLSELVVFWQDQENLVLNEVYLGKEKFDSVHSKYMGRTSFDSDSWTLRLHNLQIKDKGLYQCIIHHKKPTGMIKIHEMNSELSVLA
notes: as for B3
Question: For B4, which “fold of EC50 binding ratio over wild-type protein CD86” value [8] is on record?
Answer: The value was roughly 10 fold.
